O.D. 415, Kd and fold decrease of binding activity against p17 data for 46 molecules are collected here from US20150353608A1.

The target in test [1] is human Fc region manufactured by Jackson ImmunoResearch Laboratories, Inc. (human). Description: phage ELISA, HRP-labelled Fc. For orientation: In an ELISA, binding on a coated surface is turned into a signal by an enzyme label.
For test [2], the target named is Fc region prepared from human monoclonal IgG by papain digestion (human). Description: SPR, Fc immobilized.

Ends that are not written are not given here. Some results are limits rather than exact numbers.

YDPRTGTWRRSSLSYSG (peptide, T7 phage, not shown: large carriers, ends and bridges not checked) [recombinant phage displaying polypeptide SEQ ID NO: 9] came in with an O.D. 415 in test [1] of 0.193.

As for YDPGTGTWRSWLSFNVG (peptide, T7 phage, not shown: large carriers, ends and bridges not checked) [recombinant phage displaying polypeptide SEQ ID NO: 5], in test [1], the O.D. 415 came out at 0.155.

On to YDPVTGTWTSSIASWMG (peptide, T7 phage, not shown: large carriers, ends and bridges not checked) [recombinant phage displaying polypeptide SEQ ID NO: 8], for which the O.D. 415 in test [1] is 0.223.

On to YDPRTGTWLLYASRLLG (peptide, T7 phage, not shown: large carriers, ends and bridges not checked) [recombinant phage displaying polypeptide SEQ ID NO: 7], for which, in test [1], the O.D. 415 was determined as 0.214.

B1: recombinant phage displaying polypeptide SEQ ID NO: 80 (protein, T7 phage, not shown: large carriers)
chain: LIPPGGISPWYDPETGTWYDAAWHLGELVWATYYDPETGTWEPDWQRMLGQ
modifications: ends and bridges not checked
The molecule B1 gave an O.D. 415 in test [1] of 0.215.

B2: recombinant phage displaying polypeptide SEQ ID NO: 64 (protein, T7 phage, not shown: large carriers)
chain: IPYGFPGRGEYDPETGTWYDAAWHLGELVWATYYDPETGTWEPDWQRMLGQ
modifications: ends and bridges not checked
For the molecule B2, the O.D. 415 in test [1] was 0.213.

B3: recombinant phage displaying polypeptide SEQ ID NO: 70 (protein, T7 phage, not shown: large carriers)
chain: WMEFYPGRGVYDPETGTWYDAAWHLGELVWATYYDPETGTWEPDWQRMLGQ
modifications: ends and bridges not checked
Regarding B3, the O.D. 415 in test [1] is 0.189.

In test [1], HWVNGRSGYDPRTGTWRSSIAYGGG (peptide, T7 phage, not shown: large carriers, ends and bridges not checked) [recombinant phage displaying polypeptide SEQ ID NO: 16] registered an O.D. 415 of 0.373.

A word on the Kd: it is the constant that tells how readily two partners part at equilibrium. In turn, DAAWHLGELVWATYYDPETGTWAPDWRLMQGQ [polypeptide pep11] registered a Kd in test [2] of 510 nM. That is a sub-micromolar value.

The molecule DAAWHLGELVWATYYDPETGTWEPDWKLMQRP (peptide, T7 phage, not shown: large carriers, ends and bridges not checked) [recombinant phage displaying polypeptide SEQ ID NO: 30] displayed an O.D. 415 in test [1] of 0.287.

In test [1], AGSRRAHGYDPRTGTWRSSIAYGGG (peptide, T7 phage, not shown: large carriers, ends and bridges not checked) [recombinant phage displaying polypeptide SEQ ID NO: 12] showed an O.D. 415 of 0.267.

Turning to DAAWHLGELVWATYYDPETGTWKPDWRMMGVP (peptide, T7 phage, not shown: large carriers, ends and bridges not checked) [recombinant phage displaying polypeptide SEQ ID NO: 36], in test [1], the O.D. 415 stood at 0.287.

In turn, DAAWHLGELVWATYYDPETGTWLPDWDVMVRQ (peptide, T7 phage, not shown: large carriers, ends and bridges not checked) [recombinant phage displaying polypeptide SEQ ID NO: 32] returned an O.D. 415 in test [1] of 0.352.

Take DAAWHLGELVWATYYDPETGTWMPDWDRMLRR (peptide, T7 phage, not shown: large carriers, ends and bridges not checked) [recombinant phage displaying polypeptide SEQ ID NO: 38]: the O.D. 415 in test [1] turned out to be 0.29.

With GSVVRWRGYDPRTGTWRSSIAYGGG (peptide, T7 phage, not shown: large carriers, ends and bridges not checked) [recombinant phage displaying polypeptide SEQ ID NO: 18], the O.D. 415 in test [1] was found to be 0.36.

B4: recombinant phage displaying polypeptide SEQ ID NO: 63 (protein, T7 phage, not shown: large carriers)
chain: SNFVRSPSAWYDPETGTWYDAAWHLGELVWATYYDPETGTWEPDWQRMLGQ
modifications: not fully specified; ends and bridges not checked
In turn, B4 came in with an O.D. 415 in test [1] of 0.272.

DAAWHLGELVWATYYDPETGTWQPDWDIMAGH (peptide, T7 phage, not shown: large carriers, ends and bridges not checked) [recombinant phage displaying polypeptide SEQ ID NO: 31]: the O.D. 415 in test [1] came to 0.295.

B5: recombinant phage displaying polypeptide SEQ ID NO: 68 (protein, T7 phage, not shown: large carriers)
chain: FLVGLHAGAVYDPETGTWYDAAWHLGELVWATYYDPETGTWEPDWQRMLGQ
modifications: ends and bridges not checked
Consider B5, for which the O.D. 415 in test [1] turned out to be 0.186.

In test [1], DAAWHLGELVWATYYDPETGTWEPDWSKMRPQ (peptide, T7 phage, not shown: large carriers, ends and bridges not checked) [recombinant phage displaying polypeptide SEQ ID NO: 34] came in with an O.D. 415 of 0.281.

Consider DAAWHLGELVWATYYDPETGTWQPDWLYMTTR [polypeptide pep14], for which the Kd in test [2] amounted to 120 nM.

As to YDPWTGTWRSFIWGGGG (peptide, T7 phage, not shown: large carriers, ends and bridges not checked) [recombinant phage displaying polypeptide SEQ ID NO: 6], in test [1], the O.D. 415 stood at 0.149.

DAAWHLGELVWATYYDPETGTWLPDWQTMAQK [polypeptide pep21] registered a Kd in test [2] of 100 nM.

Turning to DAAWHLGELVWATYYDPETGTWLPDWDYMSSK (peptide, T7 phage, not shown: large carriers, ends and bridges not checked) [recombinant phage displaying polypeptide SEQ ID NO: 37], the O.D. 415 in test [1] stood at 0.235.

For the molecule DAAWHLGELVWATYYDPETGTWLPDWQTMAQK (peptide, T7 phage, not shown: large carriers, ends and bridges not checked) [recombinant phage displaying polypeptide SEQ ID NO: 26], the O.D. 415 in test [1] is 0.43.

In test [1], GAVYRRSFYDPRTGTWRSSIAYRGG (peptide, T7 phage, not shown: large carriers, ends and bridges not checked) [recombinant phage displaying polypeptide SEQ ID NO: 19] yielded an O.D. 415 of 0.353.

B6: polypeptide p17 (peptide)
peptide: GPGISAFSPGRGVYDPETGTWYDAAWHLGELVWATYYDPETGTWEPDWQRMLGQ
B6 gave a Kd in test [2] of 1.6 nM. This lies in the single-digit nanomolar range.

B7: variant polypeptide p17_W48A (peptide)
peptide: GPGISAFSPGRGVYDPETGTWYDAAWHLGELVWATYYDPETGTWEPDAQRMLGQ
In the case of B7, in test [2], the Kd worked out at 200 nM and the fold decrease of binding activity against p17 is more than 100 times.

B8: variant polypeptide p17_D47A (peptide)
peptide: GPGISAFSPGRGVYDPETGTWYDAAWHLGELVWATYYDPETGTWEPAWQRMLGQ
B8: in test [2], the Kd worked out at 45 nM. This lies in the double-digit nanomolar range.

B9: variant polypeptide p17_R50A (peptide)
peptide: GPGISAFSPGRGVYDPETGTWYDAAWHLGELVWATYYDPETGTWEPDWQAMLGQ
B9 displayed a Kd in test [2] of 7.8 nM.

B10: variant polypeptide p17_P46A (peptide)
peptide: GPGISAFSPGRGVYDPETGTWYDAAWHLGELVWATYYDPETGTWEADWQRMLGQ
In test [2], B10 registered a Kd of 5.6 nM.

B11: recombinant phage displaying polypeptide SEQ ID NO: 57 (protein, T7 phage, not shown: large carriers)
chain: GPGISAFSPGRGVYDPETGTWYDAAWHLGELVWATYYDPETGTWEPDWQRMLGQ
modifications: ends and bridges not checked
For B11, the O.D. 415 in test [1] was 0.229.

Turning to TGRGRSARYDPRTGTWRSSIAYGGG (peptide, T7 phage, not shown: large carriers, ends and bridges not checked) [recombinant phage displaying polypeptide SEQ ID NO: 15], the O.D. 415 in test [1] was 0.396.

In turn, DAAWHLGELVWATYYDPETGTWRPDWAVMATP (peptide, T7 phage, not shown: large carriers, ends and bridges not checked) [recombinant phage displaying polypeptide SEQ ID NO: 35] displayed an O.D. 415 in test [1] of 0.32.

In turn, EAWHLGELVWATYYDPETGTWRPDWSRMSGR (peptide, T7 phage, not shown: large carriers, ends and bridges not checked) [recombinant phage displaying polypeptide SEQ ID NO: 55] gave an O.D. 415 in test [1] of 0.252.

B12: recombinant phage displaying polypeptide SEQ ID NO: 65 (protein, T7 phage, not shown: large carriers)
chain: GPYNIPDSAVYDPETGTWYDAAWHLGELVWATYYDPETGTWEPDWQRMLGQ
modifications: ends and bridges not checked
Take B12: the O.D. 415 in test [1] was 0.291.

B13: recombinant phage displaying polypeptide SEQ ID NO: 66 (protein, T7 phage, not shown: large carriers)
chain: WPLNAPSSAFYDPETGTWYDAAWHLGELVWATYYDPETGTWEPDWQRMLGQ
modifications: ends and bridges not checked
In test [1], B13 yielded an O.D. 415 of 0.182.

In turn, YDPYTGTWRSSIWVLSG (peptide, T7 phage, not shown: large carriers, ends and bridges not checked) [recombinant phage displaying polypeptide SEQ ID NO: 4] displayed an O.D. 415 in test [1] of 0.165.

For DAAWHLGELVWATYYDPETGTWTPDWNAMSQR (peptide, T7 phage, not shown: large carriers, ends and bridges not checked) [recombinant phage displaying polypeptide SEQ ID NO: 39], the O.D. 415 in test [1] worked out at 0.273.

Turning to SWRRRGSSYDPRTGTWRSSIAYGGG (peptide, T7 phage, not shown: large carriers, ends and bridges not checked) [recombinant phage displaying polypeptide SEQ ID NO: 14], the O.D. 415 in test [1] came to 0.282.

Regarding DAAWHLGELVWATYYDPETGTWVPDWERMKQH (peptide, T7 phage, not shown: large carriers, ends and bridges not checked) [recombinant phage displaying polypeptide SEQ ID NO: 33], the O.D. 415 in test [1] was 0.305.

Consider YDPGTGTWRSYLRFGGG (peptide, T7 phage, not shown: large carriers, ends and bridges not checked) [recombinant phage displaying polypeptide SEQ ID NO: 3], for which the O.D. 415 in test [1] was 0.278.

B14: recombinant phage displaying polypeptide SEQ ID NO: 67 (protein, T7 phage, not shown: large carriers)
chain: VPPRFSSSAQYDPETGTWYDAAWHLGELVWATYYDPETGTWEPDWQRMLGQ
modifications: ends and bridges not checked
B14: in test [1], the O.D. 415 worked out at 0.25.

B15: recombinant phage displaying polypeptide SEQ ID NO: 69 (protein, T7 phage, not shown: large carriers)
chain: VVRVDHSSAVYDPETGTWYDAAWHLGELVWATYYDPETGTWEPDWQRMLGQ
modifications: ends and bridges not checked
In test [1], B15 displayed an O.D. 415 of 0.201.

B16: recombinant phage displaying polypeptide SEQ ID NO: 79 (protein, T7 phage, not shown: large carriers)
chain: GSCKFSSSCHYDPETGTWYDAAWHLGELVWATYYDPETGTWEPDWQRMLGQ
modifications: ends and bridges not checked; also: displayed on T7 phage coat protein g10
B16 registered an O.D. 415 in test [1] of 0.329.

B17: recombinant phage displaying polypeptide SEQ ID NO: 72 (protein, T7 phage, not shown: large carriers)
chain: FVSSLPNSAMYDPETGTWYDAAWHLGELVWATYYDPETGTWEPDWQRMLGQ
modifications: ends and bridges not checked
In turn, B17 displayed an O.D. 415 in test [1] of 0.229.

B18: recombinant phage displaying polypeptide SEQ ID NO: 71 (protein, T7 phage, not shown: large carriers)
chain: DGVGPGSRGVYDPETGTWYDAAWHLGELVWATYYDPETGTWEPDWQRMLGQ
modifications: ends and bridges not checked
Regarding B18, in test [1], the O.D. 415 stood at 0.219.
